Measurements taken from publication PMC3505971 (Nucleic Acids Research, 2012).

How the values were obtained:
crystal structure = biological target: the molecule itself; test: crystal structure
Sa Hfq [1] = biological target: T1, Sa Hfq (Staphylococcus aureus, UniProt A0A0H3JV59 1-77); test: fluorescence polarization
Sa Hfq(K33A) = Sa Hfq(K33A) (Staphylococcus aureus, UniProt A0A0H3JV59 1-77, K33A); test: fluorescence polarization
Ec Hfq = Ec Hfq (Escherichia coli, UniProt P0A6X3 1-102); test: fluorescence polarization
Sa Hfq [2] = biological target: T1, Sa Hfq; test: fluorescence polarization; remark: listed apart in the source

B1: Staphylococcus aureus Hfq (natural protein)
chain: MIANENIQDKALENFKANQTEVTVFFLNGFQMKGVIEEYDKYVVSLNSQGKQHLIYKHAISTYTVETEGQASTESEE
In the case of B1, the “stoichiometry N” value (crystal structure) is reported as 6.

For AAAAAAA (ssRNA) [(AA)3A = A7], the Kd (Sa Hfq [1]) was 0.0195 ± 0.0064 µM and the Kd (Sa Hfq(K33A)) was 0.406 ± 0.112 µM.

With AAAAAAAAAAAAAAAA (ssRNA) [A16] the Kd (Sa Hfq [1]) was 0.0042 ± 0.0005 µM and the Kd (Ec Hfq) was 0.0004 ± 0.0005 µM.

Work on AAAAAAAAAAAAAAAAAAAAAAAAAAA (ssRNA) [A27] yielded a Kd (Sa Hfq [1]) of 0.109 ± 0.013 µM and a Kd (Ec Hfq) of 0.00085 ± 8e-05 µM.

For GGAGGA (ssRNA) [(GGA)2], the Kd (Sa Hfq [1]) was 0.45 µM.

For GGAGGAGGAGGAGGAGGAGGAGGAGGA (ssRNA) [(GGA)9], the Kd (Sa Hfq [1]) was 0.35 µM.

AUUUUUG (ssRNA) [AU5G]: binds (Sa Hfq [2]).

AAAAAAG (ssRNA) [A6G]: binds (Sa Hfq [2]).

AGAGAGA (ssRNA) [(AG)3A] showed a Kd (Sa Hfq [1]) of 0.0035 ± 0.0003 µM and a Kd (Sa Hfq(K33A)) of 0.0119 ± 0.003 µM.

ACACACA (ssRNA) [(AC)3A] was tested, and the Kd (Sa Hfq [1]) was 0.0058 ± 0.0073 µM.

For AUAUAUA (ssRNA) [(AU)3A], the Kd (Sa Hfq [1]) was 0.0027 ± 0.0023 µM and the Kd (Sa Hfq(K33A)) was 0.309 ± 0.0402 µM.

Binder UUUUUU (ssRNA) [U6] has a Kd (Sa Hfq [1]) of 0.0698 ± 0.007 µM and a Kd (Sa Hfq(K33A)) of 0.0727 ± 0.0219 µM.
